Assay results reported in patent US20180355059A1 (PHARMAEXPLORER, published 2018).

Tests used:
[1] = target: T1, recombinant cyno monkey PCSK9 protein (cyno monkey, UniProt A8T666 31-692 (rhesus entry), limits assumed, biotin-labelled in the ELISA (Biotin labeling kit)); test: ELISA, biotin-cyno PCSK9 on streptavidin plate; antibody 66.67 nM
T1 construct: also called cyno PCSK9; Cyno Monkey PCSK9-His
Procedure: (§1) The next day, the plates were washed twice with wash buffer [0.01% (v/v) Tween 20], then blocked with blocking buffer [0.01% (v/v) 0.1% BSA (w/w) Tween 20] at room temperature for 2 hours. […] Unbound PCSK9 proteins were removed by washing the plate three times with wash buffer [0.01% (v/v) Tween 20]. […] The plates were washed twice with wash buffer [0.01% (v/v) Tween 20], and 200 uL HRP-conjugated secondary antibody (Sigma) was added to each well and incubated for 2 hours at 37° C. After the plates were washed three times with wash buffer, 100 ul TMB substrate were added to each well and incubated for 30 minutes at room temperature. 100 ul stop solution (0.1N HCl) were added to each well to stop the reaction.

[2] = target: T2, recombinant human PCSK9 protein, His-tagged (Immunogen A, hPCSK9-His) (human, UniProt Q8NBP7 31-692, limits assumed, biotin-labelled in the ELISA and blocking assays (Biotin labeling kit)); test: blocking ELISA, biotin-hPCSK9-His on coated LDLR ECD-His; antibody 200 nM
T2 construct: also called human PCSK9-His; recombinant hPCSK9-His; not shown: His tag

[3] = target: T2, recombinant human PCSK9 protein, …; test: ELISA, biotin-hPCSK9-His on streptavidin plate; antibody 0.0067 nM
Procedure: as §1

[4] = target: T2, recombinant human PCSK9 protein, …; test: ELISA, biotin-hPCSK9-His on streptavidin plate; antibody 0.000067 nM
Procedure: as §1

[5] = target: T2, recombinant human PCSK9 protein, …; test: ELISA, biotin-hPCSK9-His on streptavidin plate; antibody 0.67 nM
Procedure: as §1

[6] = target: T2, recombinant human PCSK9 protein, …; test: blocking ELISA, biotin-hPCSK9-His on coated LDLR ECD-His; antibody 0.06 nM
Procedure: (§2) Purified LDLR^ECD-His was diluted with PBS to a final concentration of 1.0 ug/ml, and 100 uL of diluted LDLR^ECD-His were added to each well of 96-well plate that was then sealed with plastic film and incubated at 4° C. overnight. The plate was washed twice with wash buffer [PBS+0.01% (v/v) Tween 20] and incubated with blocking buffer [PBS+0.01% (v/v) BSA+1% Tween20 (w/w)] at room temperature for 2 hours. […] The plate was washed three times with wash buffer [0.01% (v/v) Tween 20]. 100 uL HRP-conjugated streptavidin (Sigma) were then added to each well and incubated at 37° C. for 1 hour. The plate was then washed three times with wash buffer, and 100 uL TMB substrate were added to each well. After 15 minutes of incubation at room temperature, the reaction was stopped by adding 50 uL stop solution (0.1N HCl).

[7] = target: T1, recombinant cyno monkey PCSK9 protein; test: ELISA, biotin-cyno PCSK9 on streptavidin plate; antibody 0.67 nM
Procedure: as §1

[8] = target: T1, recombinant cyno monkey PCSK9 protein; test: ELISA, biotin-cyno PCSK9 on streptavidin plate; antibody 0.0067 nM
Procedure: as §1

[9] = target: T2, recombinant human PCSK9 protein, …; test: ELISA, biotin-hPCSK9-His on streptavidin plate; antibody 0.00067 nM
Procedure: as §1

[10] = target: T2, recombinant human PCSK9 protein, …; test: ELISA, biotin-hPCSK9-His on streptavidin plate; antibody 0.067 nM
Procedure: as §1

[11] = target: T1, recombinant cyno monkey PCSK9 protein; test: ELISA, biotin-cyno PCSK9 on streptavidin plate; antibody 0 nM (blank)
Procedure: as §1

[12] = target: T2, recombinant human PCSK9 protein, …; test: ELISA, biotin-hPCSK9-His on streptavidin plate; antibody 66.67 nM
Procedure: as §1

[13] = target: T1, recombinant cyno monkey PCSK9 protein; test: ELISA, biotin-cyno PCSK9 on streptavidin plate; antibody 0.067 nM
Procedure: as §1

[14] = target: T2, recombinant human PCSK9 protein, …; test: blocking ELISA, biotin-hPCSK9-His on coated LDLR ECD-His; antibody 40 nM
Procedure: as §2

[15] = target: T2, recombinant human PCSK9 protein, …; test: blocking ELISA, biotin-hPCSK9-His on coated LDLR ECD-His; antibody 0.32 nM
Procedure: as §2

[16] = target: T2, recombinant human PCSK9 protein, …; test: blocking ELISA, biotin-hPCSK9-His on coated LDLR ECD-His; antibody 8 nM
Procedure: as §2

[17] = target: T2, recombinant human PCSK9 protein, …; test: ELISA, biotin-hPCSK9-His on streptavidin plate; antibody 6.67 nM
Procedure: as §1

[18] = target: T2, recombinant human PCSK9 protein, …; test: blocking ELISA, biotin-hPCSK9-His on coated LDLR ECD-His; antibody 0.01 nM
Procedure: as §2

[19] = target: T2, recombinant human PCSK9 protein, …; test: blocking ELISA, biotin-hPCSK9-His on coated LDLR ECD-His; antibody 1.6 nM
Procedure: as §2

[20] = target: T2, recombinant human PCSK9 protein, …; test: ELISA, biotin-hPCSK9-His on streptavidin plate; antibody 0 nM (blank)
Procedure: as §1

[21] = target: T1, recombinant cyno monkey PCSK9 protein; test: ELISA, biotin-cyno PCSK9 on streptavidin plate; antibody 0.00067 nM
Procedure: as §1

[22] = target: T1, recombinant cyno monkey PCSK9 protein; test: ELISA, biotin-cyno PCSK9 on streptavidin plate; antibody 6.67 nM
Procedure: as §1

T1 sequence (A8T666 31-692 limits assumed): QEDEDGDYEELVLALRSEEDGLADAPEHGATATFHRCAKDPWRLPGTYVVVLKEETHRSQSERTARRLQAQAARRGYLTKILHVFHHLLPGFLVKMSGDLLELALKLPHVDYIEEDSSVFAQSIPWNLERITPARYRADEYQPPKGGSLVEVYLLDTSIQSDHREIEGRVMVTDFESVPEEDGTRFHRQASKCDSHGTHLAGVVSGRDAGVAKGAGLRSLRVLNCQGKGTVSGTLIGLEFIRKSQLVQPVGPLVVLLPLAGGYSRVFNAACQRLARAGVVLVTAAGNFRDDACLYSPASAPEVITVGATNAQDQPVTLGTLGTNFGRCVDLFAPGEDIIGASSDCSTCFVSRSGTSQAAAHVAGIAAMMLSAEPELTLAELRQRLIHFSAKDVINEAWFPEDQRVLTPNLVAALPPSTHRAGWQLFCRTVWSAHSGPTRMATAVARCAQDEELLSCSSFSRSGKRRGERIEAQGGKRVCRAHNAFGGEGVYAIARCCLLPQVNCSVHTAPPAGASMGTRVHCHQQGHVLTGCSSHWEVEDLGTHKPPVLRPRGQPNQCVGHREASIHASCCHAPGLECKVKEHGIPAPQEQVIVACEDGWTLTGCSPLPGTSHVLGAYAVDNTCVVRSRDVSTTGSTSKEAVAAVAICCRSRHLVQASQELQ

| Binder | OD450 nm (PCSK9 bound to LDLR) [2] | OD450 nm [3] | OD450 nm [4] | OD450 nm [5] | OD450 nm (PCSK9 bound to LDLR) [6] | OD450 nm [9] | OD450 nm [10] | OD450 nm [12] | OD450 nm (PCSK9 bound to LDLR) [14] | OD450 nm (PCSK9 bound to LDLR) [15] | OD450 nm (PCSK9 bound to LDLR) [16] | OD450 nm [17] | OD450 nm (PCSK9 bound to LDLR) [18] | OD450 nm [20] | further results |
| --- | --- | --- | --- | --- | --- | --- | --- | --- | --- | --- | --- | --- | --- | --- | --- |
| 96F8C6, chimeric anti-PCSK9 mAb purified from hybridoma (antibody, V domains shown, From Harbour H2L2 mice: human variable regions, rat constant regions) VH: EVQLVESGGGLVQPGGSLRLSCAASGITFSSYWMSWVRQAPGKGLEWVANIKQDGSEKYYVDSVKGRFTISRDIAKNSLYLQMNSLRAEDTAVYYCARDRGTYYYGSGSYNYYYYGMDVWGQGTTVTVSS VL: not shown | 0.63 OD450 nm | 0.3 OD450 nm | 0.17 OD450 nm | 2.73 OD450 nm | 1.25 OD450 nm | 0.18 OD450 nm | 1 OD450 nm | 2.86 OD450 nm | 0.45 OD450 nm | 1.16 OD450 nm | 0.53 OD450 nm | 2.89 OD450 nm | 1.19 OD450 nm | 0.2 OD450 nm | OD450 nm [1]: 2.87 OD450 nm; OD450 nm [7]: 2.26 OD450 nm; OD450 nm [8]: 0.25 OD450 nm; OD450 nm [11]: 0.25 OD450 nm; OD450 nm [13]: 0.77 OD450 nm; OD450 nm (PCSK9 bound to LDLR) [19]: 0.97 OD450 nm; OD450 nm [21]: 0.23 OD450 nm; OD450 nm [22]: 2.58 OD450 nm |
| 103C11E8, chimeric anti-PCSK9 mAb purified from hybridoma (antibody, V domains shown, From Harbour H2L2 mice: human variable regions, rat constant regions) VH: QVQLQESGPGLVKPSGTLSLTCAVSGGSISSSNWWSWVRQPPGKGLEWIGEIYHSGSTNYNPSLKSRVTISVDKSKNQFSLKLSSVTAADTAVYYCARGIAVAGTDVMDAWGQGASVTVSS VL: EIVLTQSPATLSLSPGERATLSCRASQSVSSYLVWYQQKSGQAPRLLIYGTSNRATGIPARFSGSGSGTDFTLTISSLEPEDFALYYCQQRGNWMYTFGQGTKLEIK | 0.54 OD450 nm | 0.21 OD450 nm | 0.11 OD450 nm | 2.41 OD450 nm | 0.96 OD450 nm | 0.15 OD450 nm | 0.68 OD450 nm | 2.72 OD450 nm | 0.77 OD450 nm | 0.92 OD450 nm | 0.87 OD450 nm | 2.71 OD450 nm | 0.97 OD450 nm | 0.14 OD450 nm |  |
